Laboratory results: patent publication US8431531B2, “Methods for stimulating glucagon-like peptide-1(GLP-1) secretion and treatments comprising same” (Campina Nederland Holding B.V., priority 2005, dated 2013)
Blank lines part the entries; values can stand above or below the substance they belong to.

Legend:
[1] = plasma; degradation by DPP-IV; cited from earlier work
DPP-IV = target: T1, DPP-IV (Sus scrofa, UniProt P22411); assay: In vitro measurement of DPP-IV activity (Gly-Pro-p-nitroanilide substrate, absorption at 385 nm); type: biochemical; details: Tris buffer pH 8.0
T1 construct: purchased Sigma D-7052
T1 sequence (P22411 whole entry): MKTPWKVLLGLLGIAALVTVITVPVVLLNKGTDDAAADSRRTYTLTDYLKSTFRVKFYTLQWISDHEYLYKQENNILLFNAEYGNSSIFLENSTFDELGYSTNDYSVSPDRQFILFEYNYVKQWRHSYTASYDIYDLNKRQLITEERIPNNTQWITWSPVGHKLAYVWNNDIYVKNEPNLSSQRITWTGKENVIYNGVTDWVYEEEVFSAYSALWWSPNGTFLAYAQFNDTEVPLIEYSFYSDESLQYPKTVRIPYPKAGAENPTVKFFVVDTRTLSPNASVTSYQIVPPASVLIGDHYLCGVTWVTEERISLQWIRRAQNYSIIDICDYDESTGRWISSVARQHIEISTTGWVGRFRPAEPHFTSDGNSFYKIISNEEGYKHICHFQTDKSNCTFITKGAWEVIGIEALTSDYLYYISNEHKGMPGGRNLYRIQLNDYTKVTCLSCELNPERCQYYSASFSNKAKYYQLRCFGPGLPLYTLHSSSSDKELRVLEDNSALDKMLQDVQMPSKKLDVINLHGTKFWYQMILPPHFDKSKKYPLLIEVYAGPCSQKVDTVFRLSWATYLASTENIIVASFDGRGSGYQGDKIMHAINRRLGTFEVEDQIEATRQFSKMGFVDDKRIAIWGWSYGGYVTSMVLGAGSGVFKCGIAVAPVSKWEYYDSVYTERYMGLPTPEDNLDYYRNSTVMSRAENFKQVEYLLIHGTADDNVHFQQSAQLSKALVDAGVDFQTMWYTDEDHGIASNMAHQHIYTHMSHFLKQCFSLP
Protocol: DPP-IV activity can be determined by measuring the increase in absorption at 385 nm using Gly-Pro-p-nitroanilide (Sigma G-0513) as DPP-IV substrate. A decrease in DPP-IV activity is a measure for the inhibition.
13.152 mg Gly-Pro-p-nitroanilide (substrate; Sigma G-0513) was dissolved in 1 ml Tris buffer, pH 8.0. DPP-IV (Sigma D-7052) was diluted with Tris buffer, pH 8.0 to 1.1 Unit/ml. The substrate was diluted 50-fold with Tris buffer, pH 8.0. The samples were prepared by diluting a protein hydrolysate to a 1 wt. % protein solution in Tris buffer, pH 8.0. The samples were then serially diluted to obtain a range of sample concentrations. 50 μl of the different serially diluted samples and 50 μl of the diluted substrate were then pipetted in wells of a microtiter plate with 96 wells. Subsequently, 100 μl of the diluted enzyme was pipetted in each well of a plate with 96 wells. Then the increase in absorption at 385 nm was determined and DPP-IV activities at different concentrations of a variety of protein hydrolysates were determined, from which the IC50 (i.e. the concentration of inhibitor (particular protein hydrolysate) that inhibits 50% of the DPP-IV activity) could be derived. […] The degree of hydrolysis was determined using the o-phtaldialdehyde method, which is well known in the art.

[2] = test system: Bipro from Davisco Foods, USA (unhydrolysed, DH 0%)
[3] = test system: Sodium caseinate from DMV International, NL (unhydrolysed, DH 0%)

Substance: GLP-1: 30 amino acid incretin peptide, sequence HAEGTFTSDVSSYLEGQAAKEFIAWLVKGR (SEQ ID NO: 1)
half-life [1]: 1 to 2 min

DPP-IV inhibition by unhydrolysed protein (control, DH 0%) (DPP-IV): did not inhibit the enzyme
Substance: Sodium caseinate

Substance: dipeptidyl peptidase IV (DPP-IV)
DPP-IV activity (Gly-Pro-p-nitroanilide substrate, absorption at 385 nm) [2]: unhydrolysed protein did not inhibit the enzyme
DPP-IV activity (Gly-Pro-p-nitroanilide substrate, absorption at 385 nm) [3]: unhydrolysed protein did not inhibit the enzyme
